This is an account of results in US20220112276A1 (Janssen / Centocor, published 2022).

For orientation: Kd means the free concentration of one partner at which half of the binding sites on the other are occupied at equilibrium, for simple one-to-one binding.

For assay [1], the target named is T1, human pIgR extracellular domain (ECD) (human, UniProt P01833 19-638).
T1 construct: Bought from R&D Systems (Cat 2717-PG-050); also called hpIgR ECD
Nature of the assay: SPR, VHH captured by anti-Fc, ECD analyte. Put shortly: (§1)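 Anti-human Fc surface captured VHH at 0.5 ug/ml (~200-300 RU); running buffer HBSP with 100 ug/ml BSA, 30 μL/min. Single-cycle kinetics with ECD injected low to high from 30 nM in 3-fold dilutions, dissociation 30 min. Double-referenced data globally fit to 1:1 Langmuir model for kon, koff, KD.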
In general terms: In SPR one partner is held on a chip, and binding of the other changes the refractive index at the surface.

Assay [2] has as its target T2, mouse pIgR extracellular domain (ECD) (mouse, UniProt O70570 19-645).
T2 construct: Bought from R&D Systems (Cat 2800-PG-050); also called mpIgR ECD
T2 sequence: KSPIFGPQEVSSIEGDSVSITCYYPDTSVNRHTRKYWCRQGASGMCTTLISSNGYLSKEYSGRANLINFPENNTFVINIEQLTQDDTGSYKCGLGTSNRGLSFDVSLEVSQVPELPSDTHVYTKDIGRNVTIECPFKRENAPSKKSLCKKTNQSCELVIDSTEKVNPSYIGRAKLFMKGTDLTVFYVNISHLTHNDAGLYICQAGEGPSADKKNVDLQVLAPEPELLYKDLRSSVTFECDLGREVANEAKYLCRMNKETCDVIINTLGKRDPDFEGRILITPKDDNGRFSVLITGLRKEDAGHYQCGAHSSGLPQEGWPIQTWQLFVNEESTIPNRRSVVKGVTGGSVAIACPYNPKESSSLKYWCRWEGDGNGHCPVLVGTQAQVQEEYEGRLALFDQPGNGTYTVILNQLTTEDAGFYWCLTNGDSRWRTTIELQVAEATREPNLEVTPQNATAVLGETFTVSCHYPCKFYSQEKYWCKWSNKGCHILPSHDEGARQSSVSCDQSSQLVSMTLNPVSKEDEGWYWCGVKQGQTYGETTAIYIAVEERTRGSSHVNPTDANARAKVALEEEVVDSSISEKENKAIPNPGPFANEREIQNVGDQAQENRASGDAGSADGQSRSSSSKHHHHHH
Nature of the assay: SPR, VHH captured by anti-Fc, ECD analyte. The essentials:
as §1

The target of assay [3] is T3, cynomolgus monkey pIgR extracellular domain (cynomolgus monkey, UniProt A0A2K5WMU9 19-638).
T3 construct: extracellular domain
T3 sequence (A0A2K5WMU9 entry or part of it): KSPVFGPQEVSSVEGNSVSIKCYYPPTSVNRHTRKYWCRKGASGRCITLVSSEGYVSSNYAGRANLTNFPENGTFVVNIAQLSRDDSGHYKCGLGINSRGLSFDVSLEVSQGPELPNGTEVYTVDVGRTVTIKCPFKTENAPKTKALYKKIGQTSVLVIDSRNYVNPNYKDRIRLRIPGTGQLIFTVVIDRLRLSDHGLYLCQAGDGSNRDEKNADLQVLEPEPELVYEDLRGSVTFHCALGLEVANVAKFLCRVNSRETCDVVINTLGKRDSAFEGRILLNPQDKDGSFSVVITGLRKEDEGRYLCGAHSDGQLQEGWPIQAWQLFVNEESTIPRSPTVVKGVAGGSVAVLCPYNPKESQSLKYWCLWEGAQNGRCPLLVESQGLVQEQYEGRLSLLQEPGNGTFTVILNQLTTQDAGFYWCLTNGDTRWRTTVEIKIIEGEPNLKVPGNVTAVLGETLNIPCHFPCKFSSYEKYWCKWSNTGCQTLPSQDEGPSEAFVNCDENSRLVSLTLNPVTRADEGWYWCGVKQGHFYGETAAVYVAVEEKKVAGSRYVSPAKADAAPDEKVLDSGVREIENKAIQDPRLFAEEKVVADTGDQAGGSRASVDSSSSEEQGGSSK
Nature of the assay: SPR, VHH captured by anti-Fc, ECD analyte. The essentials: as §1

The target of assay [4] is T4, rat pIgR extracellular domain (rat, UniProt P15083 19-643).
T4 construct: extracellular domain
T4 sequence (looked up): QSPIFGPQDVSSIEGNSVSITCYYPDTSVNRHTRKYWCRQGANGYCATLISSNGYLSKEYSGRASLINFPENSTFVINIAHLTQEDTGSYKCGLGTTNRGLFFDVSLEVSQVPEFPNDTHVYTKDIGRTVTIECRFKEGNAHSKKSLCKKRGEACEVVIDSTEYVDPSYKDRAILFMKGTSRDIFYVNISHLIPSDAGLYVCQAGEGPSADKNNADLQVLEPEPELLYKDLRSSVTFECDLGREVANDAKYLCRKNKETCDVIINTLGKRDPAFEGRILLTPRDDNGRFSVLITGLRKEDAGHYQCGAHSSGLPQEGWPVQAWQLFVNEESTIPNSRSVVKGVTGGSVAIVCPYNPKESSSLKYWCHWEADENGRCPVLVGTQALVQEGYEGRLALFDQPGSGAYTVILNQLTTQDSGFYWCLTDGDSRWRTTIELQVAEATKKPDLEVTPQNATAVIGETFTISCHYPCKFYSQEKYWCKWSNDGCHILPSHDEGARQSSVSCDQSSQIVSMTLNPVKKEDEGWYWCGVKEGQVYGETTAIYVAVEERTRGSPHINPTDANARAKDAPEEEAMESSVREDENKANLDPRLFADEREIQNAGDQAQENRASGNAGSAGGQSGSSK
Nature of the assay: SPR, VHH captured by anti-Fc, ECD analyte. Put shortly: as §1

In assay [5] the target is T1, human pIgR extracellular domain (ECD). Nature of the assay: SPR.

T1 sequence (P01833 other isoform, or with tags, fused parts or gaps): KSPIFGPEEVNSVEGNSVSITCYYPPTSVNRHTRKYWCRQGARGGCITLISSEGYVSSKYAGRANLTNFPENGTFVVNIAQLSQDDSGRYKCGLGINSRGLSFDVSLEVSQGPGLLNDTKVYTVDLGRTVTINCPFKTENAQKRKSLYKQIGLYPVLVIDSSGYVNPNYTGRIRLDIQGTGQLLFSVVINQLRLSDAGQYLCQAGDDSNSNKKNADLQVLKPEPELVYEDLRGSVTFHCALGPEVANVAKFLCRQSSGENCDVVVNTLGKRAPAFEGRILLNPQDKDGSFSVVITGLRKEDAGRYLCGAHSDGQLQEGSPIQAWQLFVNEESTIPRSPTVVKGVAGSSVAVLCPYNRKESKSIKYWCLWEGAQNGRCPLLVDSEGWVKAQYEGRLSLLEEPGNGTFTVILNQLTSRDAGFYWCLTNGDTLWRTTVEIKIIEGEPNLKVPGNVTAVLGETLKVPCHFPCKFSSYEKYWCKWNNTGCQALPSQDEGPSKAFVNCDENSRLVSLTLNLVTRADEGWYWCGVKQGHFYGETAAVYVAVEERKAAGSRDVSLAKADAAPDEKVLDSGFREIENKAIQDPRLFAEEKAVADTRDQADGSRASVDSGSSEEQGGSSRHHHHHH

B1: 01E05R2 VHH Mono-Fc (Fc fusion)
chain: QVQLVESGGGLVQAGGSLRLSCAASGRAFSSGRMGWFRQAPGKEREFVAAISWSGHTTYKYYADSVKGRFTISRENAKNTVSLQMNSLKPEDTAVYYCAARQSLVAGGDPRGQSEYDYWGQGTLVTVSSSPAPELLGGPSVFLFPPKPKDTLMISRTPEVTCVVVDVSHEDPEVKFNWYVDGVEVHNAKTKPREEQYNSTYRVVSVLTVLHQDWLNGKEYKCKVSNKALPAPIEKTISKAKGQPREPQVYTKPPSREEMTKNQVSLSCLVKGFYPSDIAVEWESNGQPENNYKTTVPVLDSDGSFRLASYLTVDKSRWQQGNVFSCSVMHEALHNHYTQKSLSLSPGK
Turning to B1, the Kd in assay [1] is 34.2 nM; in assay [2], 17.3 nM; in assay [3], 36.2 nM; in assay [4] it was 16.1 nM.

B2: 01A02R3 VHH Mono-Fc (Fc fusion)
chain: EVQLVESGGGLVQSGGSLRLSCAASGRTFDQFTVGWFRQAPGKEREFVTAIRWSGSTTYRYYADSVKGRFTISRDNARNTVDLQMNSLKPEDSAVYYCAGQMSQWSDPRGDDYDSWGQGTLVTVSSSPAPELLGGPSVFLFPPKPKDTLMISRTPEVTCVVVDVSHEDPEVKFNWYVDGVEVHNAKTKPREEQYNSTYRVVSVLTVLHQDWLNGKEYKCKVSNKALPAPIEKTISKAKGQPREPQVYTKPPSREEMTKNQVSLSCLVKGFYPSDIAVEWESNGQPENNYKTTVPVLDSDGSFRLASYLTVDKSRWQQGNVFSCSVMHEALHNHYTQKSLSLSPGK
For B2, the Kd in assay [1] was 17.9 nM; in assay [2] it was 7.18 nM; in assay [3] it was 4.97 nM; in assay [4], 2.78 nM.

B3: 01B07R2L VHH Mono-Fc (Fc fusion)
chain: EVQLVESGGGLVQAGGSLRLSCAASGRTFSSDAVGWFRQAPGKEREFVAHIHWSGDFTTYYYYGDFVKGRFTISRGTAKNTVYLQMNSLKPEDTAVYYCAAPKGAIGDPRSTREYDYWGQGTLVTVSSSPAPELLGGPSVFLFPPKPKDTLMISRTPEVTCVVVDVSHEDPEVKFNWYVDGVEVHNAKTKPREEQYNSTYRVVSVLTVLHQDWLNGKEYKCKVSNKALPAPIEKTISKAKGQPREPQVYTKPPSREEMTKNQVSLSCLVKGFYPSDIAVEWESNGQPENNYKTTVPVLDSDGSFRLASYLTVDKSRWQQGNVFSCSVMHEALHNHYTQKSLSLSPGK
For B3, the Kd in assay [1] is 11.4 nM; in assay [2] it was 4.46 nM; in assay [3] it was 2.11 nM; in assay [4], 2.33 nM.

B4: 01G05R2LS VHH Mono-Fc (Fc fusion)
chain: QVQLVESGGGLVQAGDSLALSCAGSGDTFSNYAMGWFRQAPGKEREFVADISWYSANIGYADSVKGRFTISRDNAKNMVTLRMNSLKPEDTAVYYCAADRNHWPVKGDYWGQGTQVTVSSSPAPELLGGPSVFLFPPKPKDTLMISRTPEVTCVVVDVSHEDPEVKFNWYVDGVEVHNAKTKPREEQYNSTYRVVSVLTVLHQDWLNGKEYKCKVSNKALPAPIEKTISKAKGQPREPQVYTKPPSREEMTKNQVSLSCLVKGFYPSDIAVEWESNGQPENNYKTTVPVLDSDGSFRLASYLTVDKSRWQQGNVFSCSVMHEALHNHYTQKSLSLSPGK
For the molecule B4, the binding result in assay [5] is reported as “no binding (tested: 30 nM)”. In addition, the affinity in assay [2], expressed as Kd, was 19.8 nM.

B5: 01C01R2L VHH Mono-Fc (Fc fusion)
chain: QVQLVESGGGLVQAGGSLRLSCAASGRTLRSYIVGWFRQAPGKEREFVAAVTWSDGRRVTADPVKGRFTISRDNAKNTVYLQMDSLKPEDAAVYYCAVSRGGAYEYSRAYEYWGQGTLVTVSSSPAPELLGGPSVFLFPPKPKDTLMISRTPEVTCVVVDVSHEDPEVKFNWYVDGVEVHNAKTKPREEQYNSTYRVVSVLTVLHQDWLNGKEYKCKVSNKALPAPIEKTISKAKGQPREPQVYTKPPSREEMTKNQVSLSCLVKGFYPSDIAVEWESNGQPENNYKTTVPVLDSDGSFRLASYLTVDKSRWQQGNVFSCSVMHEALHNHYTQKSLSLSPGK
Take B5: the binding result in assay [5] is “no binding (tested: 30 nM)”. In assay [2], this molecule registered a Kd of 6.55 nM.

B6: 01C03R2L VHH Mono-Fc (Fc fusion)
chain: EVQLVESGGGLVQAGGSLRLSCAASGRTLRSYIVGWFRQAPGKEREFVAAVTWSDGRRVTADPVKGRFTISRDNAKNTVYLQMDSLKPEDAAVYYCAVSHGGAYVESRAYEYWGQGTQVTVSSSPAPELLGGPSVFLFPPKPKDTLMISRTPEVTCVVVDVSHEDPEVKFNWYVDGVEVHNAKTKPREEQYNSTYRVVSVLTVLHQDWLNGKEYKCKVSNKALPAPIEKTISKAKGQPREPQVYTKPPSREEMTKNQVSLSCLVKGFYPSDIAVEWESNGQPENNYKTTVPVLDSDGSFRLASYLTVDKSRWQQGNVFSCSVMHEALHNHYTQKSLSLSPGK
For B6, the binding result in assay [5] is recorded as “no binding (tested: 30 nM)”. In addition, in assay [2], the Kd was found to be 3.67 nM.

B7: 01H10R3 VHH Mono-Fc (Fc fusion)
chain: QVQLVESGGGLVQAGGSLRLSCAASGRAFSQYTMGWFRQAPGKEREFVTAIRWSGGSIYKYYADSVKGRFTISGDNARNTVDLQMNSLKPEDTAVYYCAARMSPWGDPRGNEYDYWGQGTLVTVSSSPAPELLGGPSVFLFPPKPKDTLMISRTPEVTCVVVDVSHEDPEVKFNWYVDGVEVHNAKTKPREEQYNSTYRVVSVLTVLHQDWLNGKEYKCKVSNKALPAPIEKTISKAKGQPREPQVYTKPPSREEMTKNQVSLSCLVKGFYPSDIAVEWESNGQPENNYKTTVPVLDSDGSFRLASYLTVDKSRWQQGNVFSCSVMHEALHNHYTQKSLSLSPGK
In the case of B7, the Kd is 34 nM in assay [1], 47.1 nM in assay [2], 94.6 nM in assay [3] and 11.4 nM in assay [4].

B8: 01C03R3 VHH Mono-Fc (Fc fusion)
chain: QVQLVESGGGLVQAGGSLRLSCAASGRTFSSYAMGWFRQAPGKEREFVAAIHWNGASTYRYSADSVKGRFTISRDNAKNTVYLQMNSLKPEDTAAYYCAASPPPTVGDVRDPANYDSWGQGTLVTVSSSPAPELLGGPSVFLFPPKPKDTLMISRTPEVTCVVVDVSHEDPEVKFNWYVDGVEVHNAKTKPREEQYNSTYRVVSVLTVLHQDWLNGKEYKCKVSNKALPAPIEKTISKAKGQPREPQVYTKPPSREEMTKNQVSLSCLVKGFYPSDIAVEWESNGQPENNYKTTVPVLDSDGSFRLASYLTVDKSRWQQGNVFSCSVMHEALHNHYTQKSLSLSPGK
Turning to B8, the Kd in assay [1] amounted to 13.3 nM; in assay [2], 25.6 nM; in assay [3], 22.2 nM; in assay [4], 15.2 nM.

B9: 01H10R2 VHH Mono-Fc (Fc fusion)
chain: QVQLVESGGGLVQPGGSLRLSCAASGRTSSISTMGWFRQAPGKEREFVTAIRWSGSSSYKYYADSVKGRFTISRDNARNTVYLQMNSLKPEDTAVYYCAAQMSLWRDPREIDYDYWGQGTLVTVSSSPAPELLGGPSVFLFPPKPKDTLMISRTPEVTCVVVDVSHEDPEVKFNWYVDGVEVHNAKTKPREEQYNSTYRVVSVLTVLHQDWLNGKEYKCKVSNKALPAPIEKTISKAKGQPREPQVYTKPPSREEMTKNQVSLSCLVKGFYPSDIAVEWESNGQPENNYKTTVPVLDSDGSFRLASYLTVDKSRWQQGNVFSCSVMHEALHNHYTQKSLSLSPGK
On to B9, for which the Kd in assay [1] came out at 5.95 nM; in assay [2] it was 3.45 nM; in assay [3], 2.92 nM; in assay [4], 2.4 nM.

B10: 03D02R3 VHH Mono-Fc (Fc fusion)
chain: EVQLVESGGGLAQAGGSLRLSCTASGTISKIDVMAWYRQTPGNERELVARIFSNDVTHYVDSAKGRFTLSRAQDKNTVDLQMNSLEPDDAAVYYCNAQIWSDMRGRMDTYWGQGTLVTVSSSPAPELLGGPSVFLFPPKPKDTLMISRTPEVTCVVVDVSHEDPEVKFNWYVDGVEVHNAKTKPREEQYNSTYRVVSVLTVLHQDWLNGKEYKCKVSNKALPAPIEKTISKAKGQPREPQVYTKPPSREEMTKNQVSLSCLVKGFYPSDIAVEWESNGQPENNYKTTVPVLDSDGSFRLASYLTVDKSRWQQGNVFSCSVMHEALHNHYTQKSLSLSPGK
Turning to B10, the Kd in assay [1] worked out at 0.391 nM; in assay [2], 126 nM; in assay [3], 37.8 nM; in assay [4], 126 nM.
